The supplement of paper PMC5998384

Tests used:
[1] = tested on: HeLa Kyoto; assay: thermal stability score vs G1/S (z-score of summed log2 fold changes over temperatures); higher = more thermally stable than in G1/S
[2] = tested on: HeLa Kyoto; assay: solubility change mitosis vs G1/S (difference of NP-40 vs SDS log2 ratios) (log2 ratio difference); higher = more soluble in mitosis
[3] = tested on: HeLa Kyoto; assay: solubility in G1/S (NP-40 vs SDS abundance) (log2 ratio); higher = more soluble; conditions: cell cycle stage: G1/S
[4] = tested on: HeLa Kyoto; assay: melting temperature (median over replicates), in situ; higher = more thermally stable
[5] = cell cycle stage: early G1 (4.5 h after nocodazole release)
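Throughout, for melting temperature (median over replicates), in situ: HeLa Kyoto cells synchronized by double thymidine or nocodazole block, proteins quantified by TMT10plex mass spectrometry, three independent biological replicates.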
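Throughout, for solubility change mitosis vs G1/S (difference of NP-40 vs SDS log2 ratios): synchronized HeLa Kyoto cells (double thymidine block for G1/S, nocodazole release for mitosis), protein amounts in NP-40 versus SDS lysates quantified by mass spectrometry, three biological replicates.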
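Throughout, for solubility in G1/S (NP-40 vs SDS abundance): HeLa Kyoto cells arrested at G1/S by double thymidine block, proteins quantified by TMT10plex mass spectrometry in mild NP-40 versus SDS extracts, three biological replicates.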
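Throughout, for thermal stability score vs G1/S (z-score of summed log2 fold changes over temperatures): synchronized HeLa Kyoto cells, proteins quantified by TMT10plex mass spectrometry, three biological replicates, mitosis taken 0.5 h after nocodazole release, G1/S directly after double thymidine block.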

Substance | thermal stability score [1, 5] | thermal stability score ([1]; cell cycle stage: mitosis) | solubility change mitosis (log2) [2] | solubility in G1/S (log2) [3] | melting temperature ([4]; cell cycle stage: G1/S) | melting temperature ([4]; cell cycle stage: mitosis)
ITSN1 | -0.00548 | 0.39 | -0.0764 | 0.0319 | 49.5 °C | 50.2 °C
MNFAEREGSKRYCIQTKHVAILCAVVVGVGLIVGLAVGLTRSCDSSGDGGPGTAPAPSHLPSSTASPSGPPAQDQDICPASEDESGQWKNFRLPDFVNPVHYDLHVKPLLEEDTYTGTVSISINLSAPTRYLWLHLRETRITRLPELKRPSGDQVQVRRCFEYKKQEYVVVEAEEELTPSSGDGLYLLTMEFAGWLNGSLVGFYRTTYTENGQVKSIVATDHEPTDARKSFPCFDEPNKKATYTISITHPKEYGALSNMPVAKEESVDDKWTRTTFEKSVPMSTYLVCFAVHQFDSVKRISNSGKPLTIYVQPEQKHTAEYAANITKSVFDYFEEYFAMNYSLPKLDKIAIPDFGTGAMENWGLITYRETNLLYDPKESASSNQQRVATVVAHELVHQWFGNIVTMDWWEDLWLNEGFASFFEFLGVNHAETDWQMRDQMLLEDVLPVQEDDSLMSSHPIIVTVTTPDEITSVFDGISYSKGSSILRMLEDWIKPENFQKGCQMYLEKYQFKNAKTSDFWAALEEASRLPVKEVMDTWTRQMGYPVLNVNGVKNITQKRFLLDPRANPSQPPSDLGYTWNIPVKWTEDNITSSVLFNRSEKEGITLNSSNPSGNAFLKINPDHIGFYRVNYEVATWDSIATALSLNHKTFSSADRASLIDDAFALARAQLLDYKVALNLTKYLKREENFLPWQRVISAVTYIISMFEDDKELYPMIEEYFQGQVKPIADSLGWNDAGDHVTKLLRSSVLGFACKMGDREALNNASSLFEQWLNGTVSLPVNLRLLVYRYGMQNSGNEISWNYTLEQYQKTSLAQEKEKLLYGLASVKNVTLLSRYLDLLKDTNLIKTQDVFTVIRYISYNSYGKNMAWNWIQLNWDYLVNRYTLNNRNLGRIVTIAEPFNTELQLWQMESFFAKYPQAGAGEKPREQVLETVKNNIEWLKQHRNTIREWFFNLLESG [ENPEP] | -1.64 | -0.842 | 0.193 | -0.159 | 57.4 °C | 55.9 °C
MATKARVMYDFAAEPGNNELTVNEGEIITITNPDVGGGWLEGRNIKGERGLVPTDYVEILPSDGKDQFSCGNSVADQAFLDSLSASTAQASSSAASNNHQVGSGNDPWSAWSASKSGNWESSEGWGAQPEGAGAQRNTNTPNNWDTAFGHPQAYQGPATGDDDDWDEDWDGPKSSSYFKDSESADAGGAQRGNSRASSSSMKIPLNKFPGFAKPGTEQYLLAKQLAKPKEKIPIIVGDYGPMWVYPTSTFDCVVADPRKGSKMYGLKSYIEYQLTPTNTNRSVNHRYKHFDWLYERLLVKFGSAIPIPSLPDKQVTGRFEEEFIKMRMERLQAWMTRMCRHPVISESEVFQQFLNFRDEKEWKTGKRKAERDELAGVMIFSTMEPEAPDLDLVEIEQKCEAVGKFTKAMDDGVKELLTVGQEHWKRCTGPLPKEYQKIGKALQSLATVFSSSGYQGETDLNDAITEAGKTYEEIASLVAEQPKKDLHFLMECNHEYKGFLGCFPDIIGTHKGAIEKVKESDKLVATSKITLQDKQNMVKRVSIMSYALQAEMNHFHSNRIYDYNSVIRLYLEQQVQFYETIAEKLRQALSRFPVM [SNX9] | -0.198 | 0.732 | -0.0298 | -0.0383 | 49.9 °C | 49.3 °C
PLEC | -8.96 | -8.24 | 0.643 | -2.57 | 53.2 °C | 52.7 °C
MSRGPSSAVLPSALGSRKLGPRSLSCLSDLDGGVALEPRACRPPGSPGRAPPPTPAPSGCDPRLRPIILRRARSLPSSPERRQKAAGAPGAACRPGCSQKLRVRFADALGLELAQVKVFNAGDDPSVPLHVLSRLAINSDLCCSSQDLEFTLHCLVPDFPPPVEAADFGERLQRQLVCLERVTCSDLGISGTVRVCNVAFEKQVAVRYTFSGWRSTHEAVARWRGPAGPEGTEDVFTFGFPVPPFLLELGSRVHFAVRYQVAGAEYWDNNDHRDYSLTCRNHALHMPRGECEESWIHFI [PPP1R3D] | -0.613 | -0.713 | -0.164 | 0.0302 | 51.7 °C | 50.8 °C
MPFLELDTNLPANRVPAGLEKRLCAAAASILGKPADRVNVTVRPGLAMALSGSTEPCAQLSISSIGVVGTAEDNRSHSAHFFEFLTKELALGQDRILIRFFPLESWQIGKIGTVMTFL [DDT] | -2.25 | -2.27 | -0.0844 | 0.57 | 56.1 °C | 57.4 °C
MEPGPDGPAASGPAAIREGWFRETCSLWPGQALSLQVEQLLHHRRSRYQDILVFRSKTYGNVLVLDGVIQCTERDEFSYQEMIANLPLCSHPNPRKVLIIGGGDGGVLREVVKHPSVESVVQCEIDEDVIQVSKKFLPGMAIGYSSSKLTLHVGDGFEFMKQNQDAFDVIITDSSDPMGPAESLFKESYYQLMKTALKEDGVLCCQGECQWLHLDLIKEMRQFCQSLFPVVAYAYCTIPTYPSGQIGFMLCSKNPSTNFQEPVQPLTQQQVAQMQLKYYNSDVHRAAFVLPEFARKALNDVS [SRM] | 0.149 | 0.82 | -0.232 | 0.283 | 51.8 °C | 51.9 °C
MEMGRRIHLELRNRTPSDVKELVLDNSRSNEGKLEGLTDEFEELEFLSTINVGLTSIANLPKLNKLKKLELSDNRVSGGLEVLAEKCPNLTHLNLSGNKIKDLSTIEPLKKLENLKSLDLFNCEVTNLNDYRENVFKLLPQLTYLDGYDRDDKEAPDSDAEGYVEGLDDEEEDEDEEEYDEDAQVVEDEEDEDEEEEGEEEDVSGEEEEDEEGYNDGEVDDEEDEEELGEEERGQKRKREPEDEGEDDD [ANP32A] | 0.819 | 2.54 | 0.466 | -0.297 | 52.3 °C | 53.2 °C
MPGGLLLGDVAPNFEANTTVGRIRFHDFLGDSWGILFSHPRDFTPVCTTELGRAAKLAPEFAKRNVKLIALSIDSVEDHLAWSKDINAYNCEEPTEKLPFPIIDDRNRELAILLGMLDPAEKDEKGMPVTARVVFVFGPDKKLKLSILYPATTGRNFDEILRVVISLQLTAEKRVATPVDWKDGDSVMVLPTIPEEEAKKLFPKGVFTKELPSGKKYLRYTPQP [PRDX6] | -1.5 | -3.41 | 0.118 | 0.444 | 53.9 °C | 54.5 °C
MGTDSRAAKALLARARTLHLQTGNLLNWGRLRKKCPSTHSEELHDCIQKTLNEWSSQINPDLVREFPDVLECTVSHAVEKINPDEREEMKVSAKLFIVESNSSSSTRSAVDMACSVLGVAQLDSVIIASPPIEDGVNLSLEHLQPYWEELENLVQSKKIVAIGTSDLDKTQLEQLYQWAQVKPNSNQVNLASCCVMPPDLTAFAKQFDIQLLTHNDPKELLSEASFQEALQESIPDIQAHEWVPLWLLRYSVIVKSRGIIKSKGYILQAKRRGS [GCLM] | 0.373 | 1.08 | -0.0843 | 0.229 | 48.3 °C | 49 °C
MASTNAESQLQRIIRDLQDAVTELSKEFQEAGEPITDDSTSLHKFSYKLEYLLQFDQKEKATLLGNKKDYWDYFCACLAKVKGANDGIRFVKSISELRTSLGKGRAFIRYSLVHQRLADTLQQCFMNTKVTSDWYYARSPFLQPKLSSDIVGQLYELTEVQFDLASRGFDLDAAWPTFARRTLTTGSSAYLWKPPSRSSSMSSLVSSYLQTQEMVSNFDLNSPLNNEALEGFDEMRLELDQLEVREKQLRERMQQLDRENQELRAAVSQQGEQLQTERERGRTAAEDNVRLTCLVAELQKQWEVTQATQNTVKELQTCLQGLELGAAEKEEDYHTALRRLESMLQPLAQELEATRDSLDKKNQHLASFPGWLAMAQQKADTASDTKGRQEPIPSDAAQEMQELGEKLQALERERTKVEEVNRQQSAQLEQLVKELQLKEDARASLERLVKEMAPLQEELSGKGQEADQLWRRLQELLAHTSSWEEELAELRREKKQQQEEKELLEQEVRSLTRQLQFLETQLAQVSQHVSDLEEQKKQLIQDKDHLSQQVGMLERLAGPPGPELPVAGEKNEALVPVNSSLQEAWGKPEEEQRGLQEAQLDDTKVQEGSQEEELRQANRELEKELQNVVGRNQLLEGKLQALQADYQALQQRESAIQGSLASLEAEQASIRHLGDQMEASLLAVRKAKEAMKAQMAEKEAILQSKEGECQQLREEVEQCQQLAEARHRELRALESQCQQQTQLIEVLTAEKGQQGVGPPTDNEARELAAQLALSQAQLEVHQGEVQRLQAQVVDLQAKMRAALDDQDKVQSQLSMAEAVLREHKTLVQQLKEQNEALNRAHVQELLQCSEREGALQEERADEAQQREEELRALQEELSQAKCSSEEAQLEHAELQEQLHRANTDTAELGIQVCALTVEKERVEEALACAVQELQDAKEAASREREGLERQVAGLQQEKESLQEKLKAAKAAAGSLPGLQAQLAQAEQRAQSLQEAAHQELNTLKFQLSAEIMDYQSRLKNAGEECKSLRGQLEEQGRQLQAAEEAVEKLKATQADMGEKLSCTSNHLAECQAAMLRKDKEGAALREDLERTQKELEKATTKIQEYYNKLCQEVTNRERNDQKMLADLDDLNRTKKYLEERLIELLRDKDALWQKSDALEFQQKLSAEERWLGDTEANHCLDCKREFSWMVRRHHCRICGRIFCYYCCNNYVLSKHGGKKERCCRACFQKLSEGPGSPDSSGSGTSQGEPSPALSPASPGPQATGGQGANTDYRPPDDAVFDIITDEELCQIQESGSSLPETPTETDSLDPNAAEQDTTSTSLTPEDTEDMPVGQDSEICLLKSGELMIKVPLTVDEIASFGEGSRELFVRSSTYSLIPITVAEAGLTISWVFSSDPKSISFSVVFQEAEDTPLDQCKVLIPTTRCNSHKENIQGQLKVRTPGIYMLIFDNTFSRFVSKKVFYHLTVDRPVIYDGSDFL [FYCO1] | -0.119 | 0.0455 | -0.142 | 0.0536 | 51.3 °C | 51 °C
MDALKSAGRALIRSPSLAKQSWGGGGRHRKLPENWTDTRETLLEGMLFSLKYLGMTLVEQPKGEELSAAAIKRIVATAKASGKKLQKVTLKVSPRGIILTDNLTNQLIENVSIYRISYCTADKMHDKVFAYIAQSQHNQSLECHAFLCTKRKMAQAVTLTVAQAFKVAFEFWQVSKEEKEKRDKASQEGGDVLGARQDCTPSLKSLVATGNLLDLEETAKAPLSTVSANTTNMDEVPRPQALSGSSVVWELDDGLDEAFSRLAQSRTNPQVLDTGLTAQDMHYAQCLSPVDWDKPDSSGTEQDDLFSF [LDLRAP1] | -0.147 | 0.000284 | 0.0321 | 0.466 |  | 50 °C
